Key:
Conditions in all cases: chain copies: 8 (stated)
MS-(B1-L88Q)8 = MS-(B1-L88Q)8 (Mycobacterium smegmatis, UniProt A0QR29 SEQ:1-184, L88Q); experiment: mean S.D. of current levels (B1 baseline 3.26)
Method: (§1) This pre-incubation mix was added to 900 μL of buffer in the cis compartment of the electrophysiology chamber to initiate capture of the polymerase-DNA complexes in the MspA nanopore (to give final concentrations of DNA=0.5 nM, Enzyme=0.1 μM). Experiments were carried out at a constant potential of +180 mV. Current levels observed when the DNA is in the enzyme bound state were indexed and the current level, its duration and variance were recorded.

MS-(B1-L88S)8 = MS-(B1-L88S)8 (Mycobacterium smegmatis, UniProt A0QR29 SEQ:1-184, L88S); experiment: mean S.D. of current levels (B1 baseline 3.26)
Method: as §1

MS-(B1-L88N)8 = MS-(B1-L88N)8 (Mycobacterium smegmatis, UniProt A0QR29 SEQ:1-184, L88N); experiment: mean S.D. of current levels (B1 baseline 3.26)
Method: as §1

MS-(B1-D90Q)8 = MS-(B1-D90Q)8 (Mycobacterium smegmatis, UniProt A0QR29 SEQ:1-184, N90Q); experiment: current range; Phi29 unzipping, +180 mV
Method: (§2) The runs were conducted at room temperature at an applied potential of +180 mV. Current levels observed when the DNA is in the enzyme bound state were indexed and the current level, its duration and variance were recorded.
as §1

MS-(B1-I105L)8 = MS-(B1-I105L)8 (Mycobacterium smegmatis, UniProt A0QR29 SEQ:1-184, I105L); experiment: current range; Phi29 unzipping, +180 mV
Method: as §2, §1

MS-(B1-I89Y-D90S)8 = MS-(B1-I89Y-D90S)8 (Mycobacterium smegmatis, UniProt A0QR29 SEQ:1-184, I89Y,N90S); experiment: current range; Phi29 unzipping, +180 mV
Method: as §2, §1

MS-(B1-I105Y)8 = MS-(B1-I105Y)8 (Mycobacterium smegmatis, UniProt A0QR29 SEQ:1-184, I105Y); experiment: current range; Phi29 unzipping, +180 mV
Method: as §2, §1

MS-(B1-S103G)8 = MS-(B1-S103G)8 (Mycobacterium smegmatis, UniProt A0QR29 SEQ:1-184, S103G); experiment: current range; Phi29 unzipping, +180 mV
Method: as §2, §1

MS-(B1-N86T)8 = MS-(B1-N86T)8 (Mycobacterium smegmatis, UniProt A0QR29 SEQ:1-184, N86T); experiment: current range; Phi29 unzipping, +180 mV
Method: as §2, §1

B1: FIG. 12 DNA substrate (dsDNA)
DNA 1: TTTTTTTTTTTTTTTTTTTTTCCCCCCCCCCCCCCTATTCTGTTTATGTTTCTTGTTTGTTAGCCCCCTTTGATAAGACAAATACAAAGAACAAACAATCGGCCCTTTAGTGGAGCGAGTGCGAGAGGCGAGCGGTCAA
DNA 2: GTATCTCCATCGCTGTTGACCGCTCGCCTCTCGCACTCGCTCCACTAAAGGGCCGATTGTTTGTTCTTTGTATTTGTCTTATCAAAGGGGGCTAACAAACAAGAAACATAAACAGAATAG
DNA 3: CAGCGATGGAGATAC
modifications: iSp9 and 3' Cholesteryl-TEG on SEQ 23
MS-(B1-L88Q)8
  activity: 3.3
MS-(B1-L88S)8
  activity: 3.12
MS-(B1-L88N)8
  activity: 3.22
MS-(B1-D90Q)8
  activity: 70 pA
MS-(B1-I105L)8
  activity: 42 pA
MS-(B1-I89Y-D90S)8
  activity: 67 pA
MS-(B1-I105Y)8
  activity: 45 pA
MS-(B1-S103G)8
  activity: 54 pA
MS-(B1-N86T)8
  activity: 58 pA
